Measured values as given in patent US20030224390A1, “Method of identifying conformation-sensitive binding peptides and uses thereof” (Karo Bio AB, priority 2000, published 2003).

Tests used:
[1] = target: T1, Glucocorticoid Receptor (GR) (Homo sapiens, UniProt P04150); assay: Yeast based two-hybrid system with full-length GR (Example 503); assay type: cell-based
T1 construct: peptides to GR in the yeast based system using full-length receptor; expressed in transfected cells; host or cells: yeast
T1 sequence (P04150 1-777): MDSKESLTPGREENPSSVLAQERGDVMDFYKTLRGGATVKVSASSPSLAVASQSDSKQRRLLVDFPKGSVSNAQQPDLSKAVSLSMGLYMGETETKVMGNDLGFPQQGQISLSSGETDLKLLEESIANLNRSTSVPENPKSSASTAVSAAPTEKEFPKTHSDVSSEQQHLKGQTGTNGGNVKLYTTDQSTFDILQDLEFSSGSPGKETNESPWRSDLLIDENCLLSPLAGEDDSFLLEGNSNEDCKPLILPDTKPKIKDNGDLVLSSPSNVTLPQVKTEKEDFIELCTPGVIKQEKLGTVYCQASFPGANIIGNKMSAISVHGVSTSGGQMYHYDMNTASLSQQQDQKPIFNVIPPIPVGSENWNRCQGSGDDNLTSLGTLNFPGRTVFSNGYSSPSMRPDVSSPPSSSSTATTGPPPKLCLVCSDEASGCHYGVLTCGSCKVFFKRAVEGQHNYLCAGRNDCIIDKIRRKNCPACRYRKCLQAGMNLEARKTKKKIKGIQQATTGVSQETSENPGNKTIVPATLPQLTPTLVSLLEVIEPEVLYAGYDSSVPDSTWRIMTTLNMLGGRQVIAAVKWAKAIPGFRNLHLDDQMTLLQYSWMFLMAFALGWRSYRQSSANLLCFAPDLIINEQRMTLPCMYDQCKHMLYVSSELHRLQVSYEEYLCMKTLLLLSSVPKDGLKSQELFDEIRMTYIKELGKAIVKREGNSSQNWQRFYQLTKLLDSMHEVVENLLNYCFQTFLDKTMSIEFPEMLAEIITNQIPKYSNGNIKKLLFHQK
Excerpt: (§1) We have performed a limited amount of in vivo screenings for peptides to GR in the yeast based system using full-length receptor and either dexamethasone or medroxyprogesterone acetate as ligands. We have a single peptide sequence that we have followed up on based on its specificity profile in yeast. This peptide was isolated on MPA liganded GR, and is termed GRMPA. Its sequence is as follows: […] (SEQ ID NO:268).

glucocorticoid receptor = target: T2, glucocorticoid receptor (Homo sapiens, UniProt P04150); assay: Mammalian cell based peptide/GR interaction assay in Huh-7 cells, 96-/384-well luciferase
T2 construct: expressed in transfected cells; host or cells: Huh-7 cells
T2 sequence (P04150 1-777): T1 sequence (P04150 1-777)
Excerpt: as §1
We have isolated numerous peptides using phage display to the GR ligand binding domain and have formatted cell based assays in mammalian cells for screening large compound sets. We have formatted the assay as stated above for 96-well plates and for 384-well plates. To format the assay to 384-well plates the number of cells per well were scaled down to 5,000 Huh-7 cells per well. Similar ratios of DNA constructs and lipection reagents were used in both assays for transfections prior to seeding the cells into the assay plates. We have also carried out a screen of a 60,000 compound set with one of the phage display isolated peptides in this mammalian cell based format. This peptide interacts with the glucocorticoid receptor in the presence of both agonists (e.g. fluticasone propionate and dexamethasone) and antagonists (RU486). For the compound screen cells were transfected in suspension with DNA constructs as described above prior to seeding 5,000 cells per well. […]

ERβ = ERβ (Homo sapiens, UniProt Q92731); assay: Phage ELISA fingerprint: peptide binding to immobilized ER β with modulator present (Table 14B); details: nafoxidine (10 μM)
ER α = target: T3, ER α (Homo sapiens, UniProt P03372); assay: Phage ELISA fingerprint: peptide binding to immobilized ER α with modulator present (Table 14A); details: ICI 182,780 (1 μM)
T3 sequence (P03372 1-595): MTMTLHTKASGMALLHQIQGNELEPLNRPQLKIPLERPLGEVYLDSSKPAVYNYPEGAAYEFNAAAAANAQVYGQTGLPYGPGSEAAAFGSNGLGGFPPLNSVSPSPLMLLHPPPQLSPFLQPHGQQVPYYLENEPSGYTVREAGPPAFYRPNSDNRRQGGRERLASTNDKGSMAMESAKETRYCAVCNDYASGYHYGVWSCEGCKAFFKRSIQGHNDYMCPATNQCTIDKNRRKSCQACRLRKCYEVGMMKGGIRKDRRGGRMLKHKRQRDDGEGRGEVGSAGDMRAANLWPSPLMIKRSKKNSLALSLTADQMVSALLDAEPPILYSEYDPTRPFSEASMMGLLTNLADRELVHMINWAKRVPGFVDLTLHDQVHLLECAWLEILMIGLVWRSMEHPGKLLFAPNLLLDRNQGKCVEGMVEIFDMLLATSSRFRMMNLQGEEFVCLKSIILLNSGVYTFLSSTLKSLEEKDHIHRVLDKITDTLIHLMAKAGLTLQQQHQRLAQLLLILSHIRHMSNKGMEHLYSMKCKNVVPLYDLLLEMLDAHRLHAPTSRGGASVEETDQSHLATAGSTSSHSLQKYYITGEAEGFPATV

[2] = target: T4, ER β (immobilized, in vitro phage assays), Q92731; assay: phage ELISA; 4-OH tamoxifen 1 µM
T4 chain: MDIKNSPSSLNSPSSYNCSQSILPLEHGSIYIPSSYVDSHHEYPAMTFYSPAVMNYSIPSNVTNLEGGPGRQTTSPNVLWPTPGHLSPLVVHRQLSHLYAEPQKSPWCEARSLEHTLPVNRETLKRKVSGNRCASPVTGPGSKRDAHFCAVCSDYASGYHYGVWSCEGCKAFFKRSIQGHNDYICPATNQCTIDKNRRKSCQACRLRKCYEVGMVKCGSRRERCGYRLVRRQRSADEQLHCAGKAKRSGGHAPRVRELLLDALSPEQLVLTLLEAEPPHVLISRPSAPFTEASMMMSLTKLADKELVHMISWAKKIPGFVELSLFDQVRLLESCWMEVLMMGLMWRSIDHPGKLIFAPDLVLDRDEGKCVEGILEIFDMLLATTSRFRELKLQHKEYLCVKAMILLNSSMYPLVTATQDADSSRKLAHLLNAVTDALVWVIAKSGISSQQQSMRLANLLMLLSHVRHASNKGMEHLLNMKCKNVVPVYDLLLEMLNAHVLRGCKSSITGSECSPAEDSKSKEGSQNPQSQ

[3] = target: T4, ER β (immobilized, in vitro phage …); assay: phage ELISA; raloxifene 1 µM
[4] = target: T4, ER β (immobilized, in vitro phage …); assay: phage ELISA; clomiphene 10 µM
[5] = target: T4, ER β (immobilized, in vitro phage …); assay: phage ELISA; ICI 182,780 1 µM

## EFVARYGQLLGWRHPCS [GRMPA]
[1]; MPA, cortivazol, and deoxycorticosterone
  Interaction with GR in the presence of partial agonists: interacted
[1]; RU486
  Interaction with GR in the presence of antagonists: interacted
[1]; fluticasone propionate and dexamethasone
  Interaction with GR in the presence of full agonists: not
Glucocorticoid receptor
  Interaction with GR in the presence of all ligands (agonists, partial agonists, and antagonists): interacted

## SRLPPSVFSMCGSEVCLSR [9Tβ]
ERβ
  Class Specific Fingerprint on ERβ: peptide binding, Nafoxidine present: 5
ER α
  Class Specific Fingerprint on ERα: peptide binding, ICI 182,780 present: 0

## SSNHQSSRLIELLSR (modifications not checked) [Phage # 4 (Table 2)]
[2]
  phage ELISA grade: 0
[3]
  phage ELISA grade: 0
[4]
  phage ELISA grade: 0
[5]
  phage ELISA grade: 0
